System: NC(=O)c1ccc[n+]([C@@H]2O[C@H](COP(=O)(O)OP(=O)(O)OC[C@H]3O[C@@H](n4cnc5c(N)ncnc54)[C@H](O)[C@@H]3O)[C@@H](O)[C@H]2O)c1
Assay: purified protein
Conditions: pH 8.1

Which Km does the source give for (Oryza sativa Japonica Group) here?
Its Km is 193.7 ± 98.2 µM.

From publication PMC6422694
